Measurements taken from paper PMC10362042 (Nature Communications, 2023).
“And” between values parts separate entries of the source, which are not always exact repeats. Equal entries are not always repeated.

Columns and labels:
Test in all cases: SPR
Conditions in all cases: both partners purified
[1] = molecular target: T1, SARS-CoV-2 Omicron BA.4/5 RBD (residues 319-541) (SARS-CoV-2, UniProt P0DTC2 319-541)
[2] = molecular target: T2, SARS-CoV-2 Omicron BA.1 RBD (residues 319-541) (SARS-CoV-2, UniProt P0DTC2 319-541)
[3] = molecular target: T3, SARS-CoV-2 Omicron BA.2 RBD (residues 319-541) (SARS-CoV-2, UniProt P0DTC2 319-541)
[4] = molecular target: SARS-CoV-2 Omicron BA.1 RBD (residues 319-541) (SARS-CoV-2, UniProt P0DTC2 319-541); remark: listed apart in the source
[5] = molecular target: SARS-CoV-2 Omicron BA.2 RBD (residues 319-541) (SARS-CoV-2, UniProt P0DTC2 319-541); remark: listed apart in the source
[6] = molecular target: SARS-CoV-2 Omicron BA.4/5 RBD (residues 319-541) (SARS-CoV-2, UniProt P0DTC2 319-541); remark: listed apart in the source
[7] = molecular target: T1, SARS-CoV-2 Omicron BA.4/5 RBD (residues …); remark: listed apart in the source
[8] = molecular target: T2, SARS-CoV-2 Omicron BA.1 RBD (residues …); remark: listed apart in the source
[9] = molecular target: T3, SARS-CoV-2 Omicron BA.2 RBD (residues …); remark: listed apart in the source

B1: Golden Hamster ACE2 (residues 1-615) (receptor)
chain: QSIIEEQAKTFLDKFNQEAEDLSYQSALASWNYNTNITEENAQKMNEAAAKWSAFYEEQSKLAKNYSLQEVQNLTIKRQLQALQQSGSSALSADKNKQLNTILNTMSTIYSTGKVCNPKNPQECLLLEPGLDDIMATSTDYNERLWAWEGWRAEVGKQLRPLYEEYVVLKNEMARANNYEDYGDYWRGDYEAEGADGYNYNGNQLIEDVERTFKEIKPLYEQLHAYVRTKLMNTYPSYISPTGCLPAHLLGDMWGRFWTNLYPLTVPFGQKPNIDVTDAMVNQGWNAERIFKEAEKFFVSVGLPYMTQGFWENSMLTDPGDDRKVVCHPTAWDLGKGDFRIKMCTKVTMDNFLTAHHEMGHIQYDMAYATQPFLLRNGANEGFHEAVGEIMSLSAATPEHLKSIGLLPSDFQEDNETEINFLLKQALTIVGTLPFTYMLEKWRWMVFKGDIPKEQWMEKWWEMKREIVGVVEPLPHDETYCDPAALFHVSNDYSFIRYYTRTIYQFQFQEALCQAAKHDGPLHKCDISNSTEAGQKLLNMLRLGKSEPWTLALENVVGARNMDVRPLLNYFEPLSVWLKEQNKNSFVGWNTDWSPYAD
Kd [1]: 118 nM and 117 nM and 166 nM and 133 nM | kon [1]: 26000 M⁻¹ s⁻¹ and 13000 M⁻¹ s⁻¹ and 16000 M⁻¹ s⁻¹ | Kd [2]: 277 nM and 230 nM and 296 nM and 268 nM | Kd [3]: 174 nM and 106 nM and 167 nM and 149 nM | koff [3]: 0.86 s⁻¹ and 1 s⁻¹ and 0.75 s⁻¹ | kon [3]: 2.5e+06 M⁻¹ s⁻¹ and 3e+06 M⁻¹ s⁻¹ and 2e+06 M⁻¹ s⁻¹

B2: Cat ACE2 (receptor)
chain: QSTTEELAKTFLEKFNHEAEELSYQSSLASWNYNTNITDENVQKMNEAGAKWSAFYEEQSKLAKTYPLAEIHNTTVKRQLQALQQSGSSVLSADKSQRLNTILNAMSTIYSTGKACNPNNPQECLLLEPGLDDIMENSKDYNERLWAWEGWRAEVGKQLRPLYEEYVALKNEMARANNYEDYGDYWRGDYEEEWTDGYNYSRSQLIKDVEHTFTQIKPLYQHLHAYVRAKLMDTYPSRISPTGCLPAHLLGDMWGRFWTNLYPLTVPFGQKPNIDVTDAMVNQSWDARRIFKEAEKFFVSVGLPNMTQGFWENSMLTEPGDSRKVVCHPTAWDLGKGDFRIKMCTKVTMDDFLTAHHEMGHIQYDMAYAVQPFLLRNGANEGFHEAVGEIMSLSAATPNHLKTIGLLSPGFSEDSETEINFLLKQALTIVGTLPFTYMLEKWRWMVFKGEIPKEQWMQKWWEMKREIVGVVEPVPHDETYCDPASLFHVANDYSFIRYYTRTIYQFQFQEALCRIAKHEGPLHKCDISNSSEAGKKLLQMLTLGKSKPWTLALEHVVGEKKMNVTPLLKYFEPLFTWLKEQNRNSFVGWNTDWRPYADQSIKVRISLKSALGDEAYEWNDNEMYLFRSSVAYAMREYFSKVKNQTIPFVEDNVWVSNLKPRISFNFFVTASKNVSDVIPRSEVEEAIRMSRSRINDAFRLDDNSLEFLGIQPTLSPPYQPPVT
Kd [4]: 60.8 nM and 78.5 nM and 65.2 nM and 68.2 nM | kon [4]: 2.8e+06 M⁻¹ s⁻¹ and 4.2e+06 M⁻¹ s⁻¹ and 2e+06 M⁻¹ s⁻¹ | Kd [5]: 133 nM and 128 nM and 158 nM and 140 nM | koff [5]: 0.014 s⁻¹ and 0.036 s⁻¹ and 0.029 s⁻¹ | kon [5]: 180000 M⁻¹ s⁻¹ and 200000 M⁻¹ s⁻¹ and 100000 M⁻¹ s⁻¹ | Kd [6]: 149 nM (2×) and 166 nM and 155 nM | koff [6]: 0.069 s⁻¹ and 0.071 s⁻¹ and 0.079 s⁻¹ | kon [6]: 470000 M⁻¹ s⁻¹ and 570000 M⁻¹ s⁻¹ and 380000 M⁻¹ s⁻¹

B3: Horse ACE2 (receptor)
chain: QSTTEDLAKTFLEKFNSEAEELSHQSSLASWSYNTNITDENVQKMNEAGARWSAFYEEQCKLAKTYPLEEIQNLTVKRQLQALQQSGSSVLSADKSKRLNEILNTMSTIYSTGKVCNPSNPQECLLLEPGLDAIMENSKDYNQRLWAWEGWRSEVGKQLRPLYEEYVVLKNEMARANNYEDYGDYWRGDYEAEGPSGYDYSRDQLIEDVERTFAEIKPLYEHLHAYVRAKLMDTYPSHINPTGCLPAHLLGDMWGRFWTNLYSLTVPFGQKPNIDVTDAMVDQSWDAKRIFEEAEKFFVSVGLPNMTQGFWENSMLTEPGDGRKVVCHPTAWDLGKGDFRIKMCTKVTMDDFLTAHHEMGHIQYDMAYAVQPYLLRNGANEGFHEAVGEIMSLSAATPNHLKAIGLLPPDFYEDSETEINFLLKQALTIVGTLPFTYMLEKWRWMVFKGEIPKEEWMKKWWEMKREIVGVVEPVPHDETYCDPAALFHVANDYSFIRYYTRTIYQFQFQEALCQTAKHEGPLHKCDISNSTEAGQKLLQMLSLGKSEPWTLALERIVGVKNMDVRPLLNYFEPLFTWLKDQNKNSFVGWSTNWSPYAD
Kd [7]: 455 nM and 445 nM and 459 nM and 453 nM | koff [7]: 0.02 s⁻¹ and 0.021 s⁻¹ | kon [7]: 45000 M⁻¹ s⁻¹ and 46000 M⁻¹ s⁻¹ | Kd [8]: 7440 nM and 7790 nM and 8720 nM and 7980 nM | koff [8]: 0.23 s⁻¹ and 0.25 s⁻¹ and 0.26 s⁻¹ | kon [8]: 30000 M⁻¹ s⁻¹ and 32000 M⁻¹ s⁻¹ | Kd [9]: 38200 nM and 38800 nM and 44600 nM and 40500 nM | koff [9]: 0.38 s⁻¹ and 0.37 s⁻¹ | kon [9]: 9800 M⁻¹ s⁻¹ and 9600 M⁻¹ s⁻¹ and 8400 M⁻¹ s⁻¹
